T1: three-domain protein of HB3VAR03 PfEMP1 (NTS-DBLα-CIDRα1.4-DBLβ) (Plasmodium falciparum HB3 (HB3VAR03), strain)
T1 chain: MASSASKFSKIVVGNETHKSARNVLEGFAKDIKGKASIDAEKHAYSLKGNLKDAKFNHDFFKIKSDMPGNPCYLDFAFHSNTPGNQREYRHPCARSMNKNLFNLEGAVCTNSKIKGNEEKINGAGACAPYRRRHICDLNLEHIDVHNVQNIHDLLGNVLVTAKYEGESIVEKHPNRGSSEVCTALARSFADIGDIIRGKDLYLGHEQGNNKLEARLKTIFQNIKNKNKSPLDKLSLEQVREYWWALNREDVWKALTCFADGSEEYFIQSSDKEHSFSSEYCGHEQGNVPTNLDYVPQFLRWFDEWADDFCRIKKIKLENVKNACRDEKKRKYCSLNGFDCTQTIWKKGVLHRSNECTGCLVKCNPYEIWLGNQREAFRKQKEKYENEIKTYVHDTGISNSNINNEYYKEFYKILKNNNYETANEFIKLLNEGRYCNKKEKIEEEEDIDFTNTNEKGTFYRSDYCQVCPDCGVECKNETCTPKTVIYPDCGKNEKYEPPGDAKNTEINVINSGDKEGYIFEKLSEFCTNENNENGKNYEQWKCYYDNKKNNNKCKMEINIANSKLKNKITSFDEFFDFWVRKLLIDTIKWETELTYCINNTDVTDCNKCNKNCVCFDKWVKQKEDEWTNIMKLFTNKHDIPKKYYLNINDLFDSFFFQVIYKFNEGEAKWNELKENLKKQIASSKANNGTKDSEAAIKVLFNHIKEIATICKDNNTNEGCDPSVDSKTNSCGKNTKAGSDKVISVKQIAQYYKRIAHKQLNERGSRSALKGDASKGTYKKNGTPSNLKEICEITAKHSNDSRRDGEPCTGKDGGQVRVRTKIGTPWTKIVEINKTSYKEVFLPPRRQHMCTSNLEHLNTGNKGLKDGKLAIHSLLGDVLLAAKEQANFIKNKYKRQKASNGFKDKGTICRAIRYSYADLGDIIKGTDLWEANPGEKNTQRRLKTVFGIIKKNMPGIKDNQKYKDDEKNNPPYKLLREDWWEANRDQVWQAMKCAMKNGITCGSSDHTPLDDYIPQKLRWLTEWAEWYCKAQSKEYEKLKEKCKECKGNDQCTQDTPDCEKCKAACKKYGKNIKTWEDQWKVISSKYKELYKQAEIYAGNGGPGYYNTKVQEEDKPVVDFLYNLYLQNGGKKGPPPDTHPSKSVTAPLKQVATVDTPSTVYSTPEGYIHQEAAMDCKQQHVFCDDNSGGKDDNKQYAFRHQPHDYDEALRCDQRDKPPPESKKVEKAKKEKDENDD

T2: three-domain protein of IT4VAR22 PfEMP1 (NTSA-DBLα-CIDRα1.7-DBLβ) (Plasmodium falciparum IT4 (IT4VAR22), strain)
T2 chain: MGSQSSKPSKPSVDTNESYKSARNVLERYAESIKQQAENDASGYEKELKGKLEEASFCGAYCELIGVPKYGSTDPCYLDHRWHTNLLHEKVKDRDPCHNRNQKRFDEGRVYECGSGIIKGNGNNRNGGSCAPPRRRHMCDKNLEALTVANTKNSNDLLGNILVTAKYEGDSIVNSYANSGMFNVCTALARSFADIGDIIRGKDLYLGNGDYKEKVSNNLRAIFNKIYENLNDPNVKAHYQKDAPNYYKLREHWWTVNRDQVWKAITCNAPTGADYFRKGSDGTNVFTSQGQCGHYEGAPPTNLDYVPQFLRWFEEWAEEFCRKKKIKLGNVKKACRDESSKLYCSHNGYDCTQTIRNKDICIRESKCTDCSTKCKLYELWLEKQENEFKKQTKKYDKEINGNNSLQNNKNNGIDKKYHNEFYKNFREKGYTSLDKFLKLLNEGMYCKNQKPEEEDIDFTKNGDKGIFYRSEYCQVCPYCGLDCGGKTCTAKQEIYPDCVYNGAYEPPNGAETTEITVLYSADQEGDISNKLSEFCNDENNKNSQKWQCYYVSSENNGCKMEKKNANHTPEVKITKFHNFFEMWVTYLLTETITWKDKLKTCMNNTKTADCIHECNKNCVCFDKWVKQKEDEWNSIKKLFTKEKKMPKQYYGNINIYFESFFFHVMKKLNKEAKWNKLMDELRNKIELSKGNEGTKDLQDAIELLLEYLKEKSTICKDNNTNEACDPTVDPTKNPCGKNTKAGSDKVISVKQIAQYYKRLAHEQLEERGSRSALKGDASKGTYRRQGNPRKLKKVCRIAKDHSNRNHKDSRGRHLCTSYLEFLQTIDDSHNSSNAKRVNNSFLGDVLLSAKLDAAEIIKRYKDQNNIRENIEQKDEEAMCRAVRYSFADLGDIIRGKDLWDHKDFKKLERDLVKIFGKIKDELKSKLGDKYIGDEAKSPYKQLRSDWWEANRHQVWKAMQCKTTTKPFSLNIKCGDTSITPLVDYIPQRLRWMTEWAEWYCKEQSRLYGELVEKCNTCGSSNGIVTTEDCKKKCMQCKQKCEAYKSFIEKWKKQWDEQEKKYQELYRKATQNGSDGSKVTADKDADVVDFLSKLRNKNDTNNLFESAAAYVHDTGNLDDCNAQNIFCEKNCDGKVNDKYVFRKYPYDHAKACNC

T3: single CIDRα1.4 domain of HB3VAR03 PfEMP1 (crystallised with C7 Fab) (Plasmodium falciparum HB3 (HB3VAR03), strain)
T3 chain: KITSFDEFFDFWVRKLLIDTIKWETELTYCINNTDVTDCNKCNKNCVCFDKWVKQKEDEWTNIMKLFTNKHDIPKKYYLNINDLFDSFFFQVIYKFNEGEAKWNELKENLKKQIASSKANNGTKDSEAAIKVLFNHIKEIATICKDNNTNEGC

B1: mAb C7, recombinant IgG1 (antibody, V domains shown)
VH: EVQLVESGGGLAQPGGSLRLSCAASGFTFRDHGMTWVRQVSGKGLEWLSYITAGSKMSYYSDSVRGRFTISRDNAKNSLYLQMNGLTDEDSAIYYCVKGGGNCPSDTCYPSGYFGLDVWGQGTTVTVSS
VL: QSELTQPPSMSVSPGQTAMITCSMNKYSYISWYQQRPGQSPALVIYQDTRRPSGIPERFSGSNSENTAILTITGTRDLDEADYFCQGWDSNVKAVLFGGGTKLTVL
B2: C7 Fab (Fab, V domains shown)
VH: B1 VH
VL: B1 VL
B3: mAb C74, recombinant IgG1 (antibody, V domains shown)
VH: EVQLVQSGGALVRPGGSLRLSCAASGFDFSDFEMNWVRQAPGKGLEWISYISKISAASFYADSVEGRFTISRDNTKNLLWLEMTSLRDEDTAVYYCARDLPGYLERVFDLWGQGTLVSVSS
VL: EIVLTQSPATLSLSPGEDATLSCRASQSVGSALAWYQHRPGQSPRLLIYDASTRATGIPARFSGSGSGTEFTLTVSSLTSEDFAVYYCQEYKNSVPPTWTFGQGTKVEIK
B4: C74 Fab (Fab, V domains shown)
VH: B3 VH
VL: B3 VL

Experiments:
[1] = target: native HB3VAR03 PfEMP1 (CIDRα1.4) on P. falciparum-infected erythrocytes (Plasmodium falciparum HB3 (HB3VAR03), UniProt A0A0L7KL67, strain); test: flow cytometry on cells
[2] = target: native IT4VAR18 PfEMP1 (CIDRα1.6) on P. falciparum-infected erythrocytes (Plasmodium falciparum, clone IT4 …, UniProt A3R6S2, strain); test: flow cytometry on cells
[3] = target: native IT4VAR19 PfEMP1 (CIDRα1.1) on P. falciparum-infected erythrocytes (Plasmodium falciparum, clone IT4 …, UniProt A3R6S3, strain); test: flow cytometry on cells
[4] = target: T1, three-domain protein of HB3VAR03 PfEMP1 …; test: cryo-EM structure
[5] = target: T2, three-domain protein of IT4VAR22 PfEMP1 …; test: cryo-EM structure
[6] = target: T3, single CIDRα1.4 domain of HB3VAR03 …; test: crystal structure

Binder | binding result [1] | binding result [2] | binding result [3] | binding result [4] | binding result [5] | binding result [6]
B1 | binds | binds | no binding (tested: 100 μg/mL) | – | – | –
B2 | – | – | – | binds | binds | binds
B3 | binds | binds | no binding (tested: 100 μg/mL) | – | – | –
B4 | – | – | – | – | binds | –

Source: publication PMC10849712 (bioRxiv, 2024)
